# According to paper PMC8221637 (Science Advances, 2021):
# B1: recombinant His-PIPKIγ (enzyme)
# chain: MELEVPDEAESAEAGAVPSEAAWAAESGAAAGLAQKKAAPTEVLSMTAQPGPGHGKKLGHRGVDASGETTYKKTTSSTLKGAIQLGIGYTVGHLSSKPERDVLMQDFYVVESIFFPSEGSNLTPAHHFQDFRFKTYAPVAFRYFRELFGIRPDDYLYSLCNEPLIELSNPGASGSLFYVTSDDEFIIKTVMHKEAEFLQKLLPGYYMNLNQNPRTLLPKFYGLYCVQSGGKNIRVVVMNNILPRVVKMHLKFDLKGSTYKRRASKKEKEKSFPTYKDLDFMQDMPEGLLLDADTFSALVKTLQRDCLVLESFKIMDYSLLLGVHNIDQHERERQAQGAQSTSDEKRPVGQKALYSTAMESIQGGAARGEAIESDDTMGGIPAVNGRGERLLLHIGIIDILQSYRFIKKLEHTWKALVHDGDTVSVHRPSFYAERFFKFMSNTVFRKNSSLKSSPSKKGRGGALLAVKPLGPTAAFSASQIPSEREEAQYDLRGARSYPTLEDEGRPDLLPCTPPSFEEATTASIATTLSSTSLSIPERSPSETSEQPRYRRRTQSSGQDGRPQEEPPAEEDLQQITVQVEPACSVEIVVPKEEDAGVEASPAGASAAVEVETASQASDEEGAPASQASDEEDAPATDIYFFTDGRYWIYSPRHRRLRAVTLSASGTPTDERSWVYSPLHYSAQAPPASDGESDT
# Molecular target: the molecule itself
# Test: SEC
protein,measurement,value
B1,stoichiometry N,2
